# Reference: US20200405820A1 (GENERAL HOSPITAL, published 2020)
# T1: parathyroid hormone receptor 1 (PTHR1) in human osteoblast-derived SaOS-2 cells (human, UniProt Q03431 27-593)
# T1 sequence (looked up): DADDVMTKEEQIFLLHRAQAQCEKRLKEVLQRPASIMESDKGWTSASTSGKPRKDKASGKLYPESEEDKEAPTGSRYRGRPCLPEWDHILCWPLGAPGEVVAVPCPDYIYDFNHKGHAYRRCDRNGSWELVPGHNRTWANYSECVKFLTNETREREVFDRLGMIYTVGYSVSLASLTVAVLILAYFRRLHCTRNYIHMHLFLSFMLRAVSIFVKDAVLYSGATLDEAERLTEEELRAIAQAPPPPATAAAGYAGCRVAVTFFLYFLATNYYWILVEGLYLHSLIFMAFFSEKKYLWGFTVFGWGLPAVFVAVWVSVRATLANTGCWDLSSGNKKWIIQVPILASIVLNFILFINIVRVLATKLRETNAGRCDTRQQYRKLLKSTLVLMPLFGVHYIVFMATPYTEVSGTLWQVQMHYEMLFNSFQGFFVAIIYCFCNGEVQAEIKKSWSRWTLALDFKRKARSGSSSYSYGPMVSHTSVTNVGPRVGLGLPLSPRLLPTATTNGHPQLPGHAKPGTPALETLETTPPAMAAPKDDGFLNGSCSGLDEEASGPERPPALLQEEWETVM
# Tests used:
# [1] = target: T1, parathyroid hormone receptor 1 (PTHR1) …; experiment: cell-based or functional assay
# [2] = target: T1, parathyroid hormone receptor 1 (PTHR1) …; experiment: cell-based or functional assay; remark: listed apart in the source
binder,measurement,setting,value
SVSEIQLMHNLGKHLNSMERVEWLRKKLQDVHNFEYEXEYE ((PEG)2 linker (-C(O)-CH2(OCH2CH2)2CH2CH2-NH-) between the C-terminal Phe of PTH(1-34) and the N-terminal Glu of the tag; palmitoyl on the side-chain nitrogen of the Lys of the tag EYEK(palm)EYE; C-terminal amide (-NH2)) [Palm-PTH(1-34) (Ref. No. 2027)],"Max %, cAMP signaling in SaOS2/glosensor (SGS-72) cells",[1],85%
same,"pEC50, cAMP signaling potency in SaOS2/glosensor (SGS-72) cells",[1],9.81 log molar concentration (pEC50)
same,"EC50, stimulation of cAMP formation in SaOS-2 cells",[2],~0.6 nM
